# In patent US20170369590A1 (Genmab, published 2017):
# Key:
# [1] = molecular target: T1, HER2ECDHis (human, UniProt P04626 23-653, biotinylated in the cross-block ELISA (sites not given)); experiment: ELISA; competitor 025
# T1 construct: range 1-653; expressed in HEK-293F; also called soluble HER2; biotinylated HER2ECDHis
# [2] = molecular target: T1, HER2ECDHis; experiment: ELISA; competitor 050
# Experimental: (§1) Next, the ELISA wells were washed with PBST (PBS supplemented with 0.05% Tween-20 [Sigma-Aldrich, Zwijndrecht, The Netherlands]) and blocked for one hour at room temperature (RT) with PBSTC (PBST supplemented 2% [v/v] chicken serum [Gibco, Paisley, Scotland]). The ELISA wells were then washed with PBST and incubated for one hour at RT with HER2ECDHis serially diluted in PBSTC (0.25-2 μg/mL in 2-fold dilutions). […] The plate was thereafter washed with PBST and incubated for one hour with 0.1 μg/mL Streptavidin-poly-HRP (Sanquin, Amsterdam, The Netherlands) diluted in PBST. After washing, the reaction was visualized through a 15 minutes incubation with 2,2′-azino-bis (3-ethylbenzothiazoline-6-sulfonic acid) (ABTS: one ABTS tablet diluted in 50 mL ABTS buffer (Roche Diagnostics, Almere, The Netherlands)) at RT protected from light. The colorization was stopped by adding an equal volume of oxalic acid (Sigma-Aldrich, Zwijndrecht, The Netherlands). Fluorescence at 405 nm was measured on a microtiter plate reader (Biotek Instruments, Winooski, USA).
# (§2) Each HER2 antibody was coated to the ELISA wells at the sub-optimal dose that was determined as described above. After blocking of the ELISA wells, the wells were incubated with the predetermined concentration of 1 μg/mL biotinylated HER2ECDHis in the presence or absence of an excess of a second (competitor) HER2 antibody. The ELISA was then performed as described above. […] Percentage competition was then determined as 100 minus the percentage of inhibition.
# [3] = molecular target: T1, HER2ECDHis; experiment: ELISA; competitor 084
# Experimental: as §1, §2
# [4] = molecular target: T1, HER2ECDHis; experiment: ELISA; competitor 091
# Experimental: as §1, §2
# [5] = molecular target: T1, HER2ECDHis; experiment: ELISA; competitor 098
# Experimental: as §1, §2
# [6] = molecular target: T1, HER2ECDHis; experiment: ELISA; competitor 129
# Experimental: as §1, §2
# [7] = molecular target: T1, HER2ECDHis; experiment: ELISA; competitor 153
# Experimental: as §1, §2
# [8] = molecular target: T1, HER2ECDHis; experiment: ELISA; competitor 169
# Experimental: as §1, §2
# [9] = molecular target: T1, HER2ECDHis; experiment: ELISA; competitor pert
# Experimental: as §1, §2
# [10] = molecular target: T1, HER2ECDHis; experiment: ELISA; competitor tras
# Experimental: as §1, §2
# [11] = molecular target: T2, human epidermal growth factor receptor 2 (HER2), membrane-bound on cells (human, UniProt P04626 23-1255); experiment: cell-based or functional assay
# [12] = molecular target: T2, human epidermal growth factor receptor …; experiment: cell-based or functional assay; remark: listed apart in the source
# [13] = molecular target: T2, human epidermal growth factor receptor …; experiment: cell-based or functional assay; remark: listed apart in the source
# [14] = molecular target: T1, HER2ECDHis; experiment: ELISA; competitor C1
# Experimental: as §1, §2
# [15] = molecular target: T1, HER2ECDHis; experiment: ELISA; competitor F5
# Experimental: as §1, §2
# [16] = molecular target: T1, HER2ECDHis; experiment: ELISA; competitor 127
# Experimental: as §1, §2
# [17] = molecular target: T1, HER2ECDHis; experiment: ELISA; competitor 132
# Experimental: as §1, §2
# [18] = molecular target: T1, HER2ECDHis; experiment: ELISA; competitor 159
# Experimental: as §1, §2
Binder,% binding vs no competitor [1] [%],% binding vs no competitor [2] [%],% binding vs no competitor [3] [%],% binding vs no competitor [4] [%],% binding vs no competitor [5] [%],% binding vs no competitor [6] [%],% binding vs no competitor [7] [%],% binding vs no competitor [8] [%],% binding vs no competitor [9] [%],% binding vs no competitor [10] [%],"% cells killed, AU565, anti-kappa-ETA'-conjugated [11] [%]","EC50 of cell kill, AU565, anti-kappa-ETA'-conjugated [11] [µg/mL]","% cells killed, A431, anti-kappa-ETA'-conjugated [12] [%]","EC50, fab-CypHer5E internalization, AU565 [13] [µg/mL]","Maximal MFI, fab-CypHer5E internalization, AU565 [13] [MFI]","EC50 of cell kill, A431, anti-kappa-ETA'-conjugated [12] [µg/mL]",further results
"HuMab 084 (antibody, V domains shown, also called TH1014-084; PC1014-084) VH: QVQLVQSGAEVKKPGSSVKVSCKASGGTFRTYAINWVRQAPGQGLEWMGRINTVLGIVNHAQKFQGRVTITADKSTNTAYMELNSLRSEDTAVYYCAREKGVDYYYGIEVWGQGTTVTVSS VL: DIQMTQSPSSVSASVGDRVTITCRASQGISSWLAWYQHKPGKAPKLLIYVASTLQSGVPSRFSGSGSGTDFTLTISSLQPEDFATYYCQQANSFPLTFGGGTKVEIK",106,76,20,104,109,104,98,73,101,74,58.1,0.027,50.5,0.0305,71100,–,–
"HuMab 050 (antibody, V domains shown, also called TH1014-050; PC1014-050) VH: EVQLLESGGGLVQPGGSLRLSCAASGFTFSSYAMNWVRQAPGKGLEWVSAISGRGGTTYYADSVKGRFTISRDNSKNTLYLQMSSLRAEDTAVYYCAKARANWDYFDYWGQGTLVTVSS VL: DIQMTQSPSSVSASVGDRVTITCRASQGISSWLAWYQHKPGKAPKLLIYAASILQSGVPSRFSGSGSGTDFTLTISSLQPEDFATYYCQQANSFPITFGQGTRLEIK",104,12,74,98,102,110,104,30,95,13,52.4,0.0127,–,–,–,–,–
"HuMab 129 (antibody, V domains shown) VH: QVQLVESGGGVVQPGRSLRLSCAASGFTFSTFAIHWVRQAPGKGLEWVAVISYDGGHKFYADSVKGRFTISRDNSKNTLYLQMNSLRAEDTAMYYCARGLGVWGAFDYWGQGTLVTVSS VL: EIVLTQSPATLSLSPGERATLSCRASQSVSSYLAWYQQKPGQAPRLLIYDASNRATGIPARFSGSGSGTDFTLTISSLEPEDFAVYYCQQRSNWWTFGQGTKVEIK",55,97,92,76,106,12,98,99,22,93,60.8,0.0309,75.9,0.00715,60300,~0.0106,–
"HuMab 127 (antibody, V domains shown) VH: EVQLVQSGAEVKKPGESLTISCKGSGYSFSIYWIGWVRQMPGKGLEWMGIIFPGDSDIRYSPSFQGQVTISADKSISTAYLQWSSLKASDTAMYYCARQPGDWSPRHWYFDLWGRGTLVTVSS VL: VIWMTQSPSLLSASTGDRVTISCRMSQGISSYLAWYQQKPGKAPELLIYAASTLQSGVPSRFSGSGSGTDFTLTISYLQSEDFATYYCQQYYSFPLTFGGGTKVEIK",–,–,–,–,58,–,21,–,–,102,69,0.0345,–,~0.00968,138000,–,% binding vs no competitor [14]: 112%; % binding vs no competitor [15]: 88%; % binding vs no competitor [16]: 11%; % binding vs no competitor [17]: 44%; % binding vs no competitor [18]: 8%
"HuMab 169 (antibody, V domains shown, also called TH1014-169; PC1014-169) VH: QVQLVQSGAEVKKPGASVKVSCKASGYTFTNYGISWVRQAPGQGLEWMGWLSAYSGNTIYAQKLQGRVTMTTDTSTTTAYMELRSLRSDDTAVYYCARDRIVVRPDYFDYWGQGTLVTVSS VL: EIVLTQSPATLSLSPGERATLSCRASQSVSSYLAWYQQKPGQAPRLLIYDASNRATGIPARFSGSGSGTDFTLTISSLEPEDFAVYYCQQRSNWPRTFGQGTKVEIK",98,21,73,105,105,106,102,45,101,19,49.9,0.0356,34,–,38800,–,–
"HuMab 159 (antibody, V domains shown, also called TH1014-159; PC1014-159) VH: EVQLVQSGAEVKKPGESLKISCKGSGYNFTSYWIGWVRQMPGKGLEWMGIIYPGDSDTRYSPSFQGQVTISADKSISTAYLQWSSLKASDTAMYYCARWGTYYDILTGYFNWFDPWGQGTLVTVSS VL: DIQMTQSPSSLSASVGDRVTITCRASQGISSWLAWYQQKPEKAPKSLIYAASSLQSGVPSRFSGSGSGTDFTLTISSLQPEDFATYYCQQYYIYPWTFGQGTKVEIK",–,–,–,–,11,–,40,–,112,111,70.3,0.0349,–,–,92400,–,% binding vs no competitor [14]: 96%; % binding vs no competitor [15]: 86%; % binding vs no competitor [16]: 15%; % binding vs no competitor [17]: 79%; % binding vs no competitor [18]: 6%
"HuMab 091 (antibody, V domains shown, also called TH1014-091; PC1014-091) VH: QVQLQQWGAGLLKPSETLSLTCAVSGGSFSGYYWTWIRQPPGKGLEWIGEIYHSGDTNYNPSLKSRVTISVDTSKNQFSLKLYSVTAADTAVYYCARLYFGSGIYYLDYWGQGTLVTVSS VL: DIQMTQSPSSLSASVGDRVTITCRASQGISSWLVWYQQKPEKAPKSLIYAASSLQSGVPSRFSGSGSGTDFTLTISSLQPEDFATYYCQQYNSFPPTFGQGTKVEIK",13,95,100,15,98,78,98,99,5,99,50.6,0.0465,83.3,0.033,50700,~0.00986,–
"HuMab 025 (antibody, V domains shown, also called TH1014-025; PC1014-025) VH: QVQLQQWGAGLLKPSETLSLTCAVYGGSFSDYYWNWIRQPPGKGLEWIGEIHHSGSTNYNPSLKSRVTISVDTSKNQFSLKLSSVTAADTAVYYCARGYYDSGVYYFDYWAQGTLVTVSS VL: DIQMTQSPSSLSASVGDRVTITCRASQGISRWLAWYQQKPEKAPKSLIYAASSLRSGVPSRFSGSGSGTDFTLTISSLQPEDFATYYCQQYNSYPITFGQGTRLEIK",18,100,104,21,102,15,99,98,8,98,60,0.0167,86.7,0.0301,63400,~0.00977,–
